From patent publication US20240166745A1 (Eli Lilly, published 2024)

T1: Cynomolgus LAG-3-ECD (cynomolgus)
T1 construct: as printed it starts with the N-terminal leader (MWEAQ...) and ends with a His tag; also called Cynomolgus LAG-3 ECD-His
T1 chain: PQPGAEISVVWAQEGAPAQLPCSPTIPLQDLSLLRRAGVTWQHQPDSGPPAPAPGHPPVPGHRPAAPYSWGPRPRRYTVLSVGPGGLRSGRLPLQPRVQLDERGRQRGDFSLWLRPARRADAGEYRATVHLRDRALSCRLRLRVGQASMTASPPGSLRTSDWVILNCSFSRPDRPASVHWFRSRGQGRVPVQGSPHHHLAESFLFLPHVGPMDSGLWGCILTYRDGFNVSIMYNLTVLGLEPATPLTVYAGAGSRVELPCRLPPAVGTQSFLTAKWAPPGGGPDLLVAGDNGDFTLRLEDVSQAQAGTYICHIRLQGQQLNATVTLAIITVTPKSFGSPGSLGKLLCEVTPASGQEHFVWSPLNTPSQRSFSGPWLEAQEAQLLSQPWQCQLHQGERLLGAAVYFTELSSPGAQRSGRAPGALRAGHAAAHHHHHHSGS


Experiments:
[1] = target: T2, cell membrane-expressed human LAG-3/PD-1 (human, UniProt P18627 23-525; Q15116 25-288); assay: flow cytometry, labeled antibody on anti-CD3 activated human PBMC, CD4 T cells, percent of cells bound (mean +/- SEM, n=3)
T2 construct: also called Human CD4
Procedure: (§1) Cells were incubated with 10-12 point, 3-fold serial dilutions of the respective labeled antibody (Invitrogen #S20026, Invitrogen #C20029), starting at 30 ug/mL, in PBS+2% FCS for 30 minutes at 4° C. and containing the following: CD4 eBioscience #12-0047-42 or Biolegend #344634; CD8 eBioscience #25-0088-42; CD3 eBioscience 56-0038-82 for human cells and BD #557917 for cyno cells; CD33 eBioscience 45-0338-42 for human cells; Live/Dead eBioscience #65-0865-18. After washing thoroughly, cells were processed on a BD Fortessa or Fortessa X20 cytometer, and data were analyzed with Flowjo software (BD Biosciences). Percent of cells bound by the respective antibody is quantified and graphed with Prism (Graphpad, San Diego, CA).

[2] = target: T3, cell membrane-expressed cynomolgus LAG-3/PD-1 (cynomolgus); assay: flow cytometry, labeled antibody on anti-CD3 activated cynomolgus PBMC, CD8 T cells, percent of cells bound (mean +/- SEM, n=3)
T3 construct: whole, on cells; Two separate membrane proteins on the same cells, not a complex; also called Cyno CD4
Procedure: as §1

[3] = target: PathHunter U2OS PD-1/LAG-3 dimerization cell line (human PD-1 aa 1-199-EA and human LAG-3 aa 1-477-PK) (human); assay: cell-based or functional assay
Cynomolgus LAG-3-ECD [4] = target: T1, Cynomolgus LAG-3-ECD; assay: SPR (Biacore T200), antibody captured on PrismA chip, ECD as analyte, 37° C.
Procedure: (§2) A Biacore® T200 (Cytiva, Marlborough, MA) was used to measure the binding kinetics and affinities of the LAG-3 antibody to the LAG-3 soluble extracellular domain (ECD) and the bispecific antibody to soluble LAG-3-ECD and PD-1-ECD (human: Sino Biologicals, Cat #10377-H08H; cynomolgus: Sino Biologicals, Cat #90311-C08H) by surface plasmon resonance. Samples were diluted in HBS-EP+ (10 mM Hepes, 150 mM NaCl, 3 mM EDTA, 0.05% Tween-20, pH 7.6) (Teknova Cat #H8022) with 5 g/L of BSA (Jackson ImmunoResearch Cat #001-000-161) running buffer. PrismA Series S Sensor chip (Cat #29650263) is purchased from Cytiva.
(§3) Binding was evaluated using multi-cycle kinetics by an antibody capture method. Each cycle was performed at either 37° C. or 25° C. at a flow rate of 10 μL/min for antibody capture to the PrismA chip and 100 μL/min for analyte association (with 120 sec contact time) and dissociation (900 sec). Each cycle consisted of the following steps: injection of bispecific antibody at 1 μg/mL in HBS-EP+ targeting Rmax values of 125 RU (LAG-3 arm), 294 RU (PD-1 arm) and 63 RU (LAG-3 antibody) on flow cell, injection of analyte in HBS-EP+(concentration range of 62.5 nM to 0.25 nM by two-fold serial dilution for both human PD-1-ECD-His (SEQ ID NO: 40) and human LAG-3-His (SEQ ID NO: 42) followed by 900-second dissociation phase, and regeneration using 10 μL of 10 mM glycine hydrochloride, pH 1.5 over a 60-second contact time utilizing a 10 μL/min flow rate. All analyte concentrations were determined utilizing monomeric molecular weight (MW) values. Association rates (kₒₙ) and dissociation rates (koff) for LAG-3-ECD and PD-1-ECD were evaluated using double referencing by flow-cell one reference subtraction in addition to 0 nM blank subtraction and fit to “1:1 (Langmuir) binding” model in the BIAevaluation software version 4.1. The dissociation constant (KD) was calculated from the binding kinetics according to the relationship KD=Koff/Kₒₙ. Stoichiometry=[RUₘₐₓ/RUcaptured]/[MWanalyte/MWantibody] where MWAntibodyA is 150 kDa. Values are reported as mean±standard deviation.

Cynomolgus LAG-3-ECD [5] = target: T1, Cynomolgus LAG-3-ECD; assay: SPR (Biacore T200), antibody captured on PrismA chip, ECD as analyte, 25° C.
Procedure: as §2, §3

Human PD-1 ECD-His = target: T4, Human PD-1 ECD-His (human, UniProt Q15116 25-167); assay: as above
T4 construct: Soluble analyte in SPR; the entry includes the His tag
Procedure: as §2, §3

[6] = target: T2, cell membrane-expressed human LAG-3/PD-1; assay: flow cytometry, labeled antibody on anti-CD3 activated human PBMC, CD8 T cells, percent of cells bound (mean +/- SEM, n=3)
Procedure: as §1

[7] = target: T3, cell membrane-expressed cynomolgus …; assay: flow cytometry, labeled antibody on anti-CD3 activated cynomolgus PBMC, CD4 T cells, percent of cells bound (mean +/- SEM, n=3)
Procedure: as §1

T2 sequence (Q15116 25-288 limits assumed, one chain of several): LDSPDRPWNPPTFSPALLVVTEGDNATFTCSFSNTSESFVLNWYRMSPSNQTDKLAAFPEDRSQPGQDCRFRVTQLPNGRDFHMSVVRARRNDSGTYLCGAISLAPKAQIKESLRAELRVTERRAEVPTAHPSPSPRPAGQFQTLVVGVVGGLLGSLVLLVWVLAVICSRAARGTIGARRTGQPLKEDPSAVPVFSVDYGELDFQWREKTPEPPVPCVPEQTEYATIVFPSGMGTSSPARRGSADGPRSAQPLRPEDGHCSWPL
T4 sequence (Q15116 other isoform, or with tags, fused parts or gaps): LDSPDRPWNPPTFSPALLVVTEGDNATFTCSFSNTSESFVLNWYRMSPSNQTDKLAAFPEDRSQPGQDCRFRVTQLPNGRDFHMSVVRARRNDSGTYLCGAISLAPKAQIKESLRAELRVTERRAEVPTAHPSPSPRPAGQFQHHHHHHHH
T3 sequence (P79185 26-458): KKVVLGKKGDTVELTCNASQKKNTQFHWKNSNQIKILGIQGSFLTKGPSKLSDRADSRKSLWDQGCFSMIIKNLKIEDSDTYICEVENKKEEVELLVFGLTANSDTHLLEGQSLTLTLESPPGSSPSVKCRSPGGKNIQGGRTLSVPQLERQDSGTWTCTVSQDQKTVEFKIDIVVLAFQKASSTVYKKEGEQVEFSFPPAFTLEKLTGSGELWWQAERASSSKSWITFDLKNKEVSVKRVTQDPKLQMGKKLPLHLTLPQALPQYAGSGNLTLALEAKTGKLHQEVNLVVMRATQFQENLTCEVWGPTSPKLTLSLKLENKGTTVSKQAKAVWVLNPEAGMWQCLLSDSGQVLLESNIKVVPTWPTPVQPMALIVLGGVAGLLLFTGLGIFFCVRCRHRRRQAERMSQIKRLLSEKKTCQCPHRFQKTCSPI
PathHunter U2OS PD-1/LAG-3 dimerization cell line (human PD-1 aa 1-199-EA and human LAG-3 aa 1-477-PK) (human), sequence (Q15116 1-199, chain 1 of 2): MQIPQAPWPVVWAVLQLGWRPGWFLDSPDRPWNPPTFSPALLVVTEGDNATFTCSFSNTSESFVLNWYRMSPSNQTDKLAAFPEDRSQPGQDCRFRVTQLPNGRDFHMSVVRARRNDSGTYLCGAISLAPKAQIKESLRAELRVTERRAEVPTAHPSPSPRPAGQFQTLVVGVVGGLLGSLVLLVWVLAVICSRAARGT
PathHunter U2OS PD-1/LAG-3 dimerization cell line (human PD-1 aa 1-199-EA and human LAG-3 aa 1-477-PK) (human), sequence (P18627 1-477, chain 2 of 2, further chain): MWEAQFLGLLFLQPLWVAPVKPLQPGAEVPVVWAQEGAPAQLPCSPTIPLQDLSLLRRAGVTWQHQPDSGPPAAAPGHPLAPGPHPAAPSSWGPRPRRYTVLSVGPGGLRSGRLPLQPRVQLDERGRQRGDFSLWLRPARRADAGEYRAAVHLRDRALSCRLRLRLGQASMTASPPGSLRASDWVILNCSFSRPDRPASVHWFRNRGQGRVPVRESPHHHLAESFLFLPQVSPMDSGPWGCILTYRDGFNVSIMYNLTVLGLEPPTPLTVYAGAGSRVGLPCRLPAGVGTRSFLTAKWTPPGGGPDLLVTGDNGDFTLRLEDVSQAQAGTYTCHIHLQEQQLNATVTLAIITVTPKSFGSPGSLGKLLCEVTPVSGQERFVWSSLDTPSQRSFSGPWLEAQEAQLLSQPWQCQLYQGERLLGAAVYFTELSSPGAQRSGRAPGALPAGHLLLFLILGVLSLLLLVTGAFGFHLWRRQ

Row | EC50 [1] [µg/mL] | EC50 [2] [µg/mL] | EC50 for induction of PD-1 and LAG-3 dimerization (enzyme fragment complementation, luminescence) [3] [nM] | Kd (Cynomolgus LAG-3-ECD [4]) [nM] | koff (Cynomolgus LAG-3-ECD [4]) [s⁻¹] | kon (Cynomolgus LAG-3-ECD [4]) [M⁻¹ s⁻¹] | Kd (Cynomolgus LAG-3-ECD [5]) [nM] | koff (Cynomolgus LAG-3-ECD [5]) [s⁻¹] | kon (Cynomolgus LAG-3-ECD [5]) [M⁻¹ s⁻¹] | Kd (Human PD-1 ECD-His) [nM] | koff (Human PD-1 ECD-His) [s⁻¹] | EC50 [6] [µg/mL] | EC50 [7] [µg/mL] | kon (Human PD-1 ECD-His) [M⁻¹ s⁻¹] | Binder
1 | 0.0357 | 0.0167 | 2.97 | 0.51 | 0.01 | 2e+07 | 0.031 | 0.0017 | 5.4e+07 | 0.76 | 0.00057 | 0.0068 | 0.0293 |  | Antibody A (bispecific antibody, human IgG1, kappa, lambda, IgG-like bispecific with one LAG-3 arm and one PD-1 arm; also called human LAG-3/human PD-1 dual agonist bispecific antibody) heavy 1: not shown light 1: DIVMTQTPLSLPVTPGEPASISCRSSQSLLDSAEGSTYLDWFLRKPGDSPQLLIYTLSYRASGVPDRFSGSGSGTDFTLKISRVEAEDVGVYYCMQRVEFPYTFGQGTKVEIKRTVAAPSVFIFPPSKEQLKSGTASVVCLLNNFYPREAKVQWKVDNALQSGNSQESVTEQDSKDSTYSLSSTLTLSKADYEKHKVYACEVTHQGLSSPVTKSFNRGEC heavy 2: QVQLVQSGAEVKKPGASVKVSCKVSGYSLSKYDMSWVRKAPGKGLEWMGIIYTSGYTDYAQEFQGRVTMTEDTSTDTAYMELSSLRSEDTAVYYCATGNPYYTNGFNSWGQGTLVTVSSASTKGPSVFPLAPSSKSTSGGTAALGCLVKDYFPEPVTVSWNSGALTSGVATGPAVLQSSGLYSLSSVVTVPSSSLGTQTYICNVNHKPSNTKVDKRVEPKSCDKTHTCPPCPAPELLGGPSVFLFPPKPKDTLMISRTPEVTCVVVDVSHEDPEVKFNWYVDGVEVHNAKTKPREEQYNSTYRVVSVLTVLHQDWLNGKEYKCKVSNKALPAPIEKTISKAKGQPREPQVYTLPPSREEMTDNQVSLTCLVKGFYPSDIAVEWESNGQPENNYKTTPPVLMSDGSFFLASKLTVDKSRWQQGNVFSCSVMHEALHNHYTQKSLSLSPGK light 2: RIQMTQSPSSLSASVGDRVTITCQASQSPNNLLAWYQDKPGKAPKLLIYGASDLPSGVPSRFSGSGSGTDFTLTISSLQPEDFATYYCQNNYYVGPVSYAFGGGTKVEIKGQPKAAPSVTLFPPSSEELQANKATLVCYISDFYPGAVTVAWKADSSPVKAGVETTTPSKQSNNKYAAWSYLSLTPEQWKSHRSYSCQVTHEGSTVEKTVAPTEC
2 | 0.0423 | 0.018 | 2.47 | 0.48 | 0.0098 | 2e+07 | 0.031 | 0.0017 | 5.5e+07 | 0.76 | 0.00058 | 0.0077 | 0.0337 | 770000 | Antibody B (bispecific antibody, human IgG1, kappa, lambda, also called human LAG-3/human PD-1 dual agonist bispecific antibody) heavy 1: not shown light 1: DIVMTQTPLSLPVTPGEPASISCRSSQSLLDSAEGSTYLDWFLRKPGDSPQLLIYTLSYRASGVPDRFSGSGSGTDFTLKISRVEAEDVGVYYCMQRVEFPYTFGQGTKVEIKRTVAAPSVFIFPPSKEQLKSGTASVVCLLNNFYPREAKVQWKVDNALQSGNSQESVTEQDSKDSTYSLSSTLTLSKADYEKHKVYACEVTHQGLSSPVTKSFNRGEC heavy 2: QVQLVQSGAEVKKPGASVKVSCKVSGYSLSKYDMSWVRKAPGKGLEWMGIIYTSGYTDYAQEFQGRVTMTEDTSTDTAYMELSSLRSEDTAVYYCATGNPYYTNGFNSWGQGTLVTVSSASTKGPSVFPLAPSSKSTSGGTAALGCLVKDYFPEPVTVSWNSGALTSGVATGPAVLQSSGLYSLSSVVTVPSSSLGTQTYICNVNHKPSNTKVDKRVEPKSCDKTHTCPPCPAPELLGGPSVFLFPPKPKDTLMISRTPEVTCVVVDVSHEDPEVKFNWYVDGVEVHNAKTKPREEQYNSTYRVVSVLTVLHQDWLNGKEYKCAVSNKALPAPIEKTISKAKGQPREPQVYTLPPSREEMTDNQVSLTCLVKGFYPSDIAVEWESNGQPENNYKTTPPVLMSDGSFFLASKLTVDKSRWQQGNVFSCSVMHEALHNHYTQKSLSLSPGK light 2: RIQMTQSPSSLSASVGDRVTITCQASQSPNNLLAWYQDKPGKAPKLLIYGASDLPSGVPSRFSGSGSGTDFTLTISSLQPEDFATYYCQNNYYVGPVSYAFGGGTKVEIKGQPKAAPSVTLFPPSSEELQANKATLVCYISDFYPGAVTVAWKADSSPVKAGVETTTPSKQSNNKYAAWSYLSLTPEQWKSHRSYSCQVTHEGSTVEKTVAPTEC
